What follows are binders tested against T1, HLA-A*02:01 (human) (assay: biotinylated peptide-MHC complex used as negative control in T-cell priming).
T1 construct: MHC class I molecule without the peptide
Experimental: 800.000 beads/200 μl were coated in 96-well plates in the presence of 4×12.5 ng different biotin-pMHC, washed and 600 ng biotin anti-CD28 were added subsequently in a volume of 200 μl. Stimulations were initiated in 96-well plates by co-incubating 1×10⁶ CD8+ T cells with 2×10⁵ washed coated beads in 200 μl TCM supplemented with 5 ng/ml IL-12 (PromoCell) for 3 days at 37° C. Half of the medium was then exchanged by fresh TCM supplemented with 80 U/ml IL-2 and incubating was continued for 4 days at 37° C. This stimulation cycle was performed for a total of three times. For the pMHC multimer readout using 8 different pMHC molecules per condition, a two-dimensional combinatorial coding approach was used as previously described (Andersen et al., 2012) with minor modifications encompassing coupling to 5 different fluorochromes. […] For analysis, a BD LSRII SORP cytometer equipped with appropriate lasers and filters was used. Peptide specific cells were calculated as percentage of total CD8+ cells. Evaluation of multimeric analysis was done using the FlowJo software (Tree Star, Oregon, USA). In vitro priming of specific multimer+ CD8+ lymphocytes was detected by comparing to negative control stimulations.

Row | Binder | binding result
1 | YLLPAIVHI (negative control peptide of the T-cell stimulations; also called 419) [DDX5-001 (YLLPAIVHI from DDX5)] | binds

These binders were tested against T2, HLA-A*02 (human) (assay: UV-exchange ELISA (anti-b2m); yield >=75%).
T2 construct: Peptide-receptive MHC monomer made by UV cleavage of a UV-sensitive ligand and captured on streptavidin plates; also called HLA-A*02 MHC class I molecule; peptide-receptive MHC
From the text: (§1) Candidate peptides for T cell based therapies according to the present invention were further tested for their MHC binding capacity (affinity). The individual peptide-MHC complexes were produced by UV-ligand exchange, where a UV-sensitive peptide is cleaved upon UV-irradiation, and exchanged with the peptide of interest as analyzed. Only peptide candidates that can effectively bind and stabilize the peptide-receptive MHC molecules prevent dissociation of the MHC complexes. To determine the yield of the exchange reaction, an ELISA was performed based on the detection of the light chain (β2m) of stabilized MHC complexes. The assay was performed as generally described in Rodenko et al. (Rodenko et al., 2006).
(§2) 96 well MAXISorp plates (NUNC) were coated over night with 2 ug/ml streptavidin in PBS at room temperature, washed 4× and blocked for 1 h at 37° C. in 2% BSA containing blocking buffer. […] Peptide-MHC monomers of the UV-exchange reaction were diluted 100 fold in blocking buffer. Samples were incubated for 1 h at 37° C., washed four times, incubated with 2 ug/ml HRP conjugated anti-β2m for 1 h at 37° C., washed again and detected with TMB solution that is stopped with […]. Absorption was measured at 450 nm.

Row | Binder | peptide exchange yield
2 | ALSDETKNNWEV | ≥ 75%
3 | KLYGIEIEV | ≥ 75%
4 | AIFDFCPSV | ≥ 75%
5 | SLVPLQILL | ≥ 75%

The binders below were run against T2, HLA-A*02 (assay: UV-exchange ELISA (anti-b2m); yield <20%).
From the text: as §1, §2

Row | Binder | peptide exchange yield
6 | TLSSERDFAL | < 20%
7 | AQTVVVIKA | < 20%
8 | SSLEPQIQPV | < 20%
9 | GAVAEEVLSSI | < 20%
